Measurements as given in patent US20050245445A1 (BURNHAM INSTITUTE FOR MEDICAL RESEARCH, published 2005).
Where no end group is shown, it is not given here.

B1: fluorescein-conjugated RGR peptide (CRGRRST) (peptide)
peptide: CRGRRST
modifications: also: fluorescein-conjugated (site of attachment not given here)
notes: Synthetic linear peptide made by Fmoc chemistry and injected intravenously into RIP1-Tag2 mice; also called RGR-FITC; fluorescein-conjugated CRGRRST peptide
B2: RGR phage (T7 phage displaying the RGR peptide CRGRRST) (peptide)
peptide: CRGRRST

Assays:
[1] = molecular target: T1, PDGFRβ in RIP1-Tag2 mouse tumor tissue (mouse, UniProt P05622 32-1098); assay: co-localization of i.v. injected peptide with anti-PDGFRβ immunostaining in RIP1-Tag2 tumor sections
T1 construct: whole, on cells; Endogenous receptor in tissue, seen only by immunostaining; also called PDGFRb (CD140b)
T1 sequence (P05622 32-1098): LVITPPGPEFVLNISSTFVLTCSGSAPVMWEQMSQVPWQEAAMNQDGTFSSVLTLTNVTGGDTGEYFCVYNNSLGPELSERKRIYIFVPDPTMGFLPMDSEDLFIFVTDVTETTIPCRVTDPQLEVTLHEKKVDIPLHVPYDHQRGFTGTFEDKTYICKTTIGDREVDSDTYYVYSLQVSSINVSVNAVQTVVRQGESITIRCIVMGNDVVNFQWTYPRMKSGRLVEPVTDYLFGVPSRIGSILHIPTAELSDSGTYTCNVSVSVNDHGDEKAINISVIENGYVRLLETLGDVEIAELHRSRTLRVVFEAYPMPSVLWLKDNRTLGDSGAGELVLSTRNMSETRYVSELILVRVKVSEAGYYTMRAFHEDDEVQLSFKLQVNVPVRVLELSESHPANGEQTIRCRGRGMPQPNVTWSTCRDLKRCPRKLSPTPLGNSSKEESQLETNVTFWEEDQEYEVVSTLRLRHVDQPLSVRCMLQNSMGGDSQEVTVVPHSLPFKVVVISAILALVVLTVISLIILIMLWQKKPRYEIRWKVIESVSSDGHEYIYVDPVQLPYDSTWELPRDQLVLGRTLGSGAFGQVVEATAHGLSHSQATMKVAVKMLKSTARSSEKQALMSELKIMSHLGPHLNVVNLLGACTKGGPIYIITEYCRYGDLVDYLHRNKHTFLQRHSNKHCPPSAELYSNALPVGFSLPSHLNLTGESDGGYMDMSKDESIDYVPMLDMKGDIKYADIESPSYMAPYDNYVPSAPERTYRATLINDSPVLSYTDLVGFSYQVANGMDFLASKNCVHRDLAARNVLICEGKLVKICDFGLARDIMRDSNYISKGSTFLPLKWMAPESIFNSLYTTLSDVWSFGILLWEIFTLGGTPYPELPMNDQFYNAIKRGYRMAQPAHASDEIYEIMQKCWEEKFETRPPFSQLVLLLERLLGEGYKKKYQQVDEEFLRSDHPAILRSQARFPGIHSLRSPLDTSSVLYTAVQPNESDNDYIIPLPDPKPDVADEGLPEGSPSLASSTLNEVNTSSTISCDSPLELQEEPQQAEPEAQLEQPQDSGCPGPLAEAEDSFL
Description: For immunohistochemistry, frozen slides were pre-incubated with blocking buffer (1×PNB from NEN Biosciences) for one hour, washed several times in 1×PBS and incubated with the primary antibody of interest overnight at 4° C. The cell-specific antibodies used were rat monoclonal anti-mouse CD31 (1:200; BD Pharmingen), rat monoclonal anti-mouse MECA-32 (1:200; BD Pharmingen), rabbit polyclonal anti-mouse NG2 (1:200; Chemicon), and rat monoclonal anti-mouse PDGFRb (CD140b) (1:200; eBioscience). The corresponding secondary antibodies; Cy-3 donkey anti-rabbit IgG and Rhodamine Red donkey anti-rat IgG (Jackson ImmunoResearch), were used at a 1:200 dilution and incubated for one hour at room temperature. The following species-matched immunoglobulins were used as negative controls; rabbit IgG (Vector Laboratories) and rat IgG (Jackson ImmunoResearch) at a 1:200 dilution. The slides were washed several times in 1×PBS and mounted in Vectashield Mounting Medium with DAPI (Vector Laboratories). Hematoxylin and eosin (H&E) staining was performed for histological grading of adjacent sections by standard methods, and lesions were graded as previously described (Lopez and Hanahan, 2002).
In contrast, no binding above background was detected toward cells transfected with vascular endothelial growth factor receptor 2 (VEGFR2) (FIG. 5A).

[2] = molecular target: PDGFRβ overexpressed on transfected 293T cells; assay: phage binding to transfected 293T cells, 2 hours at 4° C., bound phage counted by plaque assay

| Binder | binding result [1] | fold binding to PDGFRβ-transfected cells over non-transfected cells [2] [fold] |
| --- | --- | --- |
| B1 | binds |  |
| B2 |  | 20 |
